Results taken from publication PMC3656419 (Journal of molecular biology, 2008).

B1: SeMet EcMenD (selenomethionine derivative of Escherichia coli MenD, histidine tag removed by proteolysis) (enzyme, E. coli (K12))
chain: GHMSVSAFNRRWAAVILEALTRHGVRHICIAPGSRSTPLTLAAAENSAFIHHTHFDERGLGHLALGLAKVSKQPVAVIVTSGTAVANLYPALIEAGLTGEKLILLTADRPPELIDCGANQAIRQPGMFASHPTHSISLPRPTQDIPARWLVSTIDHALGTLHAGGVHINCPFAEPLYGEMDDTGLSWQQRLGDWWQDDKPWLREAPRLESEKQRDWFFWRQKRGVVVAGRMSAEEGKKVALWAQTLGWPLIGDVLSQTGQPLPCADLWLGNAKATSELQQAQIVVQLGSSLTGKRLLQWQASCEPEEYWIVDDIEGRLDPAHHRGRRLIANIADWLELHPAEKRQPWCVEIPRLAEQAMQAVIARRDAFGEAQLAHRICDYLPEQGQLFVGNSLVVRLIDALSQLPAGYPVYSNRGASGIDGLLSTAAGVQRASGKPTLAIVGDLSALYDLNALALLRQVSAPLVLIVVNNNGGQIFSLLPTPQSERERFYLMPQNVHFEHAAAMFELKYHRPQNWQELETAFADAWRTPTTTVIEMVVNDTDGAQTLQQLLAQVSHL
modifications: selenomethionine in place of methionine (full incorporation of SeMet)
B2: native EcMenD (Escherichia coli 2-succinyl-5-enolpyruvyl-6-hydroxy-3-cyclohexadiene-1-carboxylate synthase), N-terminal hexahistidine-tagged (enzyme, E. coli (K12), UniProt P17109 1-556, looked up)
chain: MSVSAFNRRWAAVILEALTRHGVRHICIAPGSRSTPLTLAAAENSAFIHHTHFDERGLGHLALGLAKVSKQPVAVIVTSGTAVANLYPALIEAGLTGEKLILLTADRPPELIDCGANQAIRQPGMFASHPTHSISLPRPTQDIPARWLVSTIDHALGTLHAGGVHINCPFAEPLYGEMDDTGLSWQQRLGDWWQDDKPWLREAPRLESEKQRDWFFWRQKRGVVVAGRMSAEEGKKVALWAQTLGWPLIGDVLSQTGQPLPCADLWLGNAKATSELQQAQIVVQLGSSLTGKRLLQWQASCEPEEYWIVDDIEGRLDPAHHRGRRLIANIADWLELHPAEKRQPWCVEIPRLAEQAMQAVIARRDAFGEAQLAHRICDYLPEQGQLFVGNSLVVRLIDALSQLPAGYPVYSNRGASGIDGLLSTAAGVQRASGKPTLAIVGDLSALYDLNALALLRQVSAPLVLIVVNNNGGQIFSLLPTPQSERERFYLMPQNVHFEHAAAMFELKYHRPQNWQELETAFADAWRTPTTTVIEMVVNDTDGAQTLQQLLAQVSHL

Experiments:
SEC = target: the molecule itself; experiment: SEC
crystal structure = target: the molecule itself; experiment: crystal structure
AUC = target: the molecule itself; experiment: AUC

| Protein | stoichiometry N (SEC) | stoichiometry N (crystal structure) | stoichiometry N (AUC) |
| --- | --- | --- | --- |
| B1 | 2 | 4 | 3 |
| B2 | 2 | – | – |
